Patent US20120219551A1 (MacroGenics, published 2012)

Target: T1, soluble dimeric FcγRIIB-Fc fusion protein (extracellular domain of FcγRIIB fused to hinge-CH2-CH3 of human … (human, UniProt P31994 43-217))
T1 construct: extracellular domain; also called FcRIIB-Fc; 2bfcagl; not shown: human IgG2 hinge-CH2-CH3
T1 sequence (looked up): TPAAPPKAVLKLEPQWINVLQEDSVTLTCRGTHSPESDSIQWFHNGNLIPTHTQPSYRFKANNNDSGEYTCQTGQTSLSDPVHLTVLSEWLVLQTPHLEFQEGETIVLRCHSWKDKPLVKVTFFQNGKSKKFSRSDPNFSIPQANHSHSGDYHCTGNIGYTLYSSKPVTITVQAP
Assay: SPR (BIAcore), Fc mutant in ch4-4-20, off rate relative to wild type

B1: ch4-4-20 MgFc66 (A330V, V427M) (antibody)
chain 1: not shown
chain 2: DVVMTQTPLSLPVSLGDQASISCRSSQSLVHSNGNTYLRWYLQKPGQSPKVLIYKVSNRFSGVPDRFSGSGSGTDFTLKISRVEAEDLGVYFCSQSTHVPWTFGGGTKLEIKRTVAAPSVFIFPPSDEQLKSGTASVVCLLNNFYPREAKVQWKVDNALQSGNSQESVTEQDSKDSTYSLSSTLTLSKADYEKHKVYACEVTHQGLSSPVTKSFNRGEC
Koff WT/Mut: 0.62
